Test results reported in patent US20250064929A1 (UPSTREAM BIO, published 2025).

Columns and labels:
[1] = target: T1, human TSLP receptor (TSLP-R) (human, UniProt Q9HC73 23-371); assay: cell-based or functional assay
T1 sequence (looked up): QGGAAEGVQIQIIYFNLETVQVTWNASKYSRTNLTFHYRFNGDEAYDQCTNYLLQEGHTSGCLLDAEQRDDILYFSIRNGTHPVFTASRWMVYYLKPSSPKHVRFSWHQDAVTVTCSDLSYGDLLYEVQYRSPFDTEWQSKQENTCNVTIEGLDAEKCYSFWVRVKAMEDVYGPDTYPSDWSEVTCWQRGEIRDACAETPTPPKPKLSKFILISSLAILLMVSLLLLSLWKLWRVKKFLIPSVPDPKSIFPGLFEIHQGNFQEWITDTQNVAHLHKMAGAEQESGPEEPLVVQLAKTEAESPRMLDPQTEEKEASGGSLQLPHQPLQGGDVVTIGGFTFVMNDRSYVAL

[2] = target: T1, human TSLP receptor (TSLP-R); assay: cell-based or functional assay; remark: listed apart in the source

IC50 (ng/mL), cell proliferation of Ba/F3 cells transfected with human TSLP-R/IL-7Rα [1]: 90.7 ng/mL
IC50 (ng/mL), CCL17 production in dendritic cells [2]: 16.1 ng/mL
B1: TRAB-1 antibody (anti-TSLP-R antibody) (antibody, human IgG1, kappa, V domains shown)
VH: EVQLLESGGGLVQPGGSLRLSCAASGFTFRSSAMHWVRQAPGKGLKWVSSVSGSGAGTYYADSVKGRFTISRDNPKNTLYLQMNSLRAEDTAVYYCVKEGGSRGFDYWGQGTLVTVSS
VL: DIQMTQSPSSLSASVGDRVTITCRASQDISNYLAWFQQKPGKAPKSLIYTASSLQSGVPSKFSGSGSGTDFTLTISSLQPEDFATYYCQQYNLYPPTFGQGTKVEIKR
